In PMC8730730:

Biological target: enzymatically deglycosylated clinical-grade rshACE2 (human) (UniProt Q9BYF1)
Test: BLI

Chain of UniProt Q9BYF1 (Q9BYF1 18-740 limits assumed): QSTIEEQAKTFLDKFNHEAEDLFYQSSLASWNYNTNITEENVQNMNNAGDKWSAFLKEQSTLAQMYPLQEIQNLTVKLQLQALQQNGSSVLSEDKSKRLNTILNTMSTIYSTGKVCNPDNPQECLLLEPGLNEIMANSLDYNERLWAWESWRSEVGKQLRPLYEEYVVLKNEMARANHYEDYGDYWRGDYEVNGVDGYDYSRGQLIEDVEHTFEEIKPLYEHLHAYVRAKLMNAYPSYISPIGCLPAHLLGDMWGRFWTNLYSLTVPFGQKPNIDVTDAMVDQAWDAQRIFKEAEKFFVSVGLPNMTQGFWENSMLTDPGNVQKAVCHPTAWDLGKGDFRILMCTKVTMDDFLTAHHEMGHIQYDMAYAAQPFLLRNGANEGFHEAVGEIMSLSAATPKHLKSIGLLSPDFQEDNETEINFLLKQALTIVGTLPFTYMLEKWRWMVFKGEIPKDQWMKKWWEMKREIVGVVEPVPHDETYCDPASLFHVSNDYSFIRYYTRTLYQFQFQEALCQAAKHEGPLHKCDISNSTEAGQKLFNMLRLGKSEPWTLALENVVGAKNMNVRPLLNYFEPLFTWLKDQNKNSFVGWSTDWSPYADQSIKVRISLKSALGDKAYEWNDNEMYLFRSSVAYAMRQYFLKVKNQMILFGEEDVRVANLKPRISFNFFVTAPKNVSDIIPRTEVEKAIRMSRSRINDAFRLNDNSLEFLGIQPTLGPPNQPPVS

For “SARS-CoV-2 Spike receptor binding domain (residues R319-F541) (from UniProt P0DTC2 319-541) (domain or fragment)”, the Kd was 5.1 nM.
